Molecular target: T1, OR7D4 (Homo sapiens, UniProt Q8NG98, D296E/E302K/G299D)
T1 construct: Improved functional expression of modified OR-genes containing the truncated, optimized C-terminus; expressed in transfected cells
T1 sequence (Q8NG98 with tags, fused parts or gaps D296E/G299D/E302K): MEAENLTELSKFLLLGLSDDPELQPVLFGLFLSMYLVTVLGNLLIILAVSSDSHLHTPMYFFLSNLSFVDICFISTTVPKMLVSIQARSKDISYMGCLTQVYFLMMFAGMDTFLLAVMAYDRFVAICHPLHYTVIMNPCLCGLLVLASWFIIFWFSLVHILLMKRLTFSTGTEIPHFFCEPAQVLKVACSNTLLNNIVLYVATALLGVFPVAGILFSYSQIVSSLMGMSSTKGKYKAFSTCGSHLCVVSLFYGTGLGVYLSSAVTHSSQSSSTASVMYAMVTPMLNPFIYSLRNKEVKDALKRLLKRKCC
Test: CRE-luciferase assay, HEK cells expressing OR7D4 (wild-type / modified C-terminus)
Assay type: cell-based
Conditions: OR7D4 variant; for EC2 (concentration for 2-fold luciferase induction) / EC2 Fold-improvement vs. wild-type: Androstenone
Source text: Random permutations of the general C-terminal sequence RN[KR][EDQ][VMIL][KR]KA[LIV][KRH][KR][LI][LIF][KRG][KR][KR]CC (SEQ ID NO: 822) linked to OR7D4 were generated based on degenerate oligonucleotides for the C-terminal domain. For this experiment, the MfeI/XhoI fragment from pcDNA3.1(+)-mmLucy-FLAG-rho-OR7D4 containing the CMV promoter and the OR coding sequence was used to replace the EcoRI/SalI fragment of pRDVCCB-CMV-dCas9-VPH-2A-Blast (Cellecta, Inc., Mountain View, USA). Complementary degenerate oligonucleotides were then used to replace the coding region of the C-terminal domain of […] (between Bsu36I and NotI). Random clones were selected, sequenced and tested for a correct open reading frame. A total of 55 clones were obtained with the correct open reading frame of […] and a permutation of the general sequence RN[KR][EDQ][VMIL][KR]KA[LIV][KRH][KR][LI][LIF][KRG][KR][KR]CC (SEQ ID NO: 822) as the C-terminal domain. All the different clones were compared to the wild-type sequence by the functional assay in HEK cells with the ligand Androstenone tested in a dose-response test.

EC2 (concentration for 2-fold luciferase induction)	EC2 Fold-improvement vs. wild-type	Substance	Fold induction luciferase (0.1 μM Androstenone)	Fold induction luciferase (1 μM Androstenone)
0.005 µM	325.72	SEQ ID NO: 277 (RNRDVRKAVRKLFKRRCC; source 1..18: note = C-terminal domain sequence)	–	–
0.098 µM	17.53	SEQ ID NO: 279 (RNKELKKALRKLIGKKCC; source 1..18: note = C-terminal domain sequence)	–	–
0.013 µM	128.83	SEQ ID NO: 283 (RNREVKKAVKKLIGKRCC; source 1..18: note = C-terminal domain sequence)	–	–
0.012 µM	144.06	SEQ ID NO: 287 (RNREVKKAVKKLIRRKCC; source 1..18: note = C-terminal domain sequence)	–	–
0.014 µM	119.65	SEQ ID NO: 289 (RNKEIRKALRRLFGKKCC; source 1..18: note = C-terminal domain sequence)	–	–
0.008 µM	225.85	SEQ ID NO: 290 (RNKDVKKALRRLFGKKCC; source 1..18: note = C-terminal domain sequence)	–	–
0.113 µM	15.28	SEQ ID NO: 291 (RNKELKKAIKRLIRRKCC; source 1..18: note = C-terminal domain sequence)	–	–
0.008 µM	224.95	SEQ ID NO: 294 (RNRDIRKALRKLFKKKCC; source 1..18: note = C-terminal domain sequence)	–	–
0.033 µM	51.89	SEQ ID NO: 295 (RNRELKKALRRLLRRRCC; source 1..18: note = C-terminal domain sequence)	–	–
0.003 µM	525.05	SEQ ID NO: 296 (RNREVKKALRRLFGKKCC; source 1..18: note = C-terminal domain sequence)	–	–
0.013 µM	128.57	SEQ ID NO: 301 (RNKEVKKAIRKLFGRRCC; source 1..18: note = C-terminal domain sequence)	–	–

Further lines, the substance ahead of its results:

Substance	EC2 (concentration for 2-fold luciferase induction)	EC2 Fold-improvement vs. wild-type	Fold induction luciferase (0.1 μM Androstenone)	Fold induction luciferase (1 μM Androstenone)
SEQ ID NO: 270 (RNKDVRKAVRRLIKRKCC; source 1..18: note = C-terminal domain sequence)	0.012 µM	145.78	–	–
SEQ ID NO: 271 (RNRDLRKAVRKLFKKKCC; source 1..18: note = C-terminal domain sequence)	0.030 µM	56.86	–	–
SEQ ID NO: 272 (RNRDLRKALRRIFKRRCC; source 1..18: note = C-terminal domain sequence)	0.013 µM	136.52	–	–
SEQ ID NO: 273 (RNRDVRKAIKKLIRKRCC; source 1..18: note = C-terminal domain sequence)	0.005 µM	373.12	–	–
SEQ ID NO: 274 (RNKELKKAIKRILKKKCC; source 1..18: note = C-terminal domain sequence)	0.095 µM	18.20	–	–
SEQ ID NO: 275 (RNRDVRKAIRKLLKRKCC; source 1..18: note = C-terminal domain sequence)	0.005 µM	323.20	–	–
SEQ ID NO: 276 (RNRDLRKAVRRIFKKRCC; source 1..18: note = C-terminal domain sequence)	0.034 µM	50.55	–	–
SEQ ID NO: 278 (RNRDVRKALRRLFKKRCC; source 1..18: note = C-terminal domain sequence)	0.003 µM	522.64	–	–
SEQ ID NO: 280 (RNREMRKAIKKIIKKKCC; source 1..18: note = C-terminal domain sequence)	0.009 µM	187.06	–	–
SEQ ID NO: 281 (RNKEIKKAIKKIIKKRCC; source 1..18: note = C-terminal domain sequence)	0.029 µM	60.06	–	–
SEQ ID NO: 282 (RNRDVKKAIRRLFRRRCC; source 1..18: note = C-terminal domain sequence)	0.007 µM	250.61	–	–
SEQ ID NO: 284 (RNREMRKALRRLFRKRCC; source 1..18: note = C-terminal domain sequence)	0.003 µM	545.04	–	–
SEQ ID NO: 285 (RNKELKKALRRLIGRRCC; source 1..18: note = C-terminal domain sequence)	0.042 µM	41.00	3.18	22.10
SEQ ID NO: 286 (RNRDVKKALRKLIGKRCC; source 1..18: note = C-terminal domain sequence)	0.003 µM	545.04	–	–
SEQ ID NO: 288 (RNKEVRKALKKLFGKKCC; source 1..18: note = C-terminal domain sequence)	0.006 µM	294.52	17.84	28.81
SEQ ID NO: 292 (RNKDVRKAVKRLLKKRCC; source 1..18: note = C-terminal domain sequence)	0.018 µM	94.88	–	–
SEQ ID NO: 293 (RNKELRKAIRRLLRRRCC; source 1..18: note = C-terminal domain sequence)	0.068 µM	25.22	–	–
SEQ ID NO: 297 (RNRDVRKALKRLLKRKCC; source 1..18: note = C-terminal domain sequence)	0.005 µM	337.39	–	–
SEQ ID NO: 298 (RNRDMRKAIRKLFGRKCC; source 1..18: note = C-terminal domain sequence)	0.011 µM	162.22	–	–
SEQ ID NO: 299 (RNRELKKAIRKLLKRKCC; source 1..18: note = C-terminal domain sequence)	0.093 µM	18.62	–	–
SEQ ID NO: 300 (RNRDIRKAVKKLFGKKCC; source 1..18: note = C-terminal domain sequence)	0.020 µM	87.76	–	–
SEQ ID NO: 302 (RNREVRKAVRKLFRRKCC; source 1..18: note = C-terminal domain sequence)	0.014 µM	126.99	–	–
